In patent US10618965 (dated 2020):
Positions count from the first letter of the chain named. Where two headings read alike, the source gives them in different places. Blank lines part the entries; values can stand above or below the binder they belong to.

Columns and labels:
human FcgRIIIa(V) [1] = molecular target: human FcgRIIIa(V) (human); assay: SPR
human FcgRIIIa(V) [2] = molecular target: human FcgRIIIa(V) (human); assay: SPR; remark: listed apart in the source
human FcgRIIa(R) [3] = molecular target: T1, human FcgRIIa(R) (human); assay: SPR
T1 chain: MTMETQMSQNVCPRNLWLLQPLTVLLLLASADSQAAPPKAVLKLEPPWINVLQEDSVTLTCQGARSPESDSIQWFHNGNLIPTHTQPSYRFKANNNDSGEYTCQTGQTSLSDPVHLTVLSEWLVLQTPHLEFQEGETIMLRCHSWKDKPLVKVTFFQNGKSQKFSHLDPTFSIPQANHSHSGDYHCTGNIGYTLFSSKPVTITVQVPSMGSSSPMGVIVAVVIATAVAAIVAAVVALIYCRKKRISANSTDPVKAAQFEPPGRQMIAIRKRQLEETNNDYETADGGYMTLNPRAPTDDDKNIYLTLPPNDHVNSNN

human FcgRIIa(H) [4] = molecular target: T2, human FcgRIIa(H) (human); assay: SPR
T2 chain: T1 chain

human FcgRIIb [5] = molecular target: T3, human FcgRIIb (human); assay: SPR
T3 chain: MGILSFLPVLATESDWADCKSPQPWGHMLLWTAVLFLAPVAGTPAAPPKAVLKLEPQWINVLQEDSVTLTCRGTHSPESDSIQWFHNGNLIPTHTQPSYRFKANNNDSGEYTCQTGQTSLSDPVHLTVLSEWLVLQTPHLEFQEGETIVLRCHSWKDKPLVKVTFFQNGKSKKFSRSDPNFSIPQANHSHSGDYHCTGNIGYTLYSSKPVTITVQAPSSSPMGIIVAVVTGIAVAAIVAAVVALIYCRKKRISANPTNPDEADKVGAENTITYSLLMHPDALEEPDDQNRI

human FcgRIIa(R) [6] = molecular target: T1, human FcgRIIa(R); assay: SPR
human FcgRIIIa(V) [7] = molecular target: human FcgRIIIa(V) (human); assay: SPR; remark: listed apart in the source
human FcgRIa [8] = molecular target: human FcgRIa (human); assay: SPR
Sequence of human FcgRIa (human) (chain, as listed by the source): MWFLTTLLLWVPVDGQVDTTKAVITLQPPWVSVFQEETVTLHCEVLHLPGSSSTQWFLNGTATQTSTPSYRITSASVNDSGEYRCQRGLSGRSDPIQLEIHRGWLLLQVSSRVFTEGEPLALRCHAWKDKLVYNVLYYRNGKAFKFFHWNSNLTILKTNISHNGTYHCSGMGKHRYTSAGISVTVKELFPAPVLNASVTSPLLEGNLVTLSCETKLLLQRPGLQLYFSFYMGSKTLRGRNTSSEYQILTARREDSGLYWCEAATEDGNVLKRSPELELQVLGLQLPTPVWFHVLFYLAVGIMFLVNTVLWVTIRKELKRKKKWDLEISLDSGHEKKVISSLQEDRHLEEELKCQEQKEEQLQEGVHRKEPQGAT

human FcgRIIb [9] = molecular target: T3, human FcgRIIb; assay: SPR
human FcgRIa [10] = molecular target: human FcgRIa (human); assay: SPR; remark: listed apart in the source
human FcgRIIb [11] = molecular target: T3, human FcgRIIb; assay: SPR
human FcgRIIa(H) [12] = molecular target: T2, human FcgRIIa(H); assay: SPR
human FcgRIIa(H) [13] = molecular target: T2, human FcgRIIa(H); assay: SPR
human FcgRIIb [14] = molecular target: T3, human FcgRIIb; assay: SPR
human FcgRIIb [15] = molecular target: T3, human FcgRIIb; assay: SPR
human FcgRIIa(R) [16] = molecular target: T1, human FcgRIIa(R); assay: SPR
human FcgRIa [17] = molecular target: human FcgRIa (human); assay: SPR; remark: listed apart in the source
mouse FcRn = molecular target: T4, mouse FcRn (mouse, UniProt Q61559); assay: SPR, pH 7.0
T4 chain 1: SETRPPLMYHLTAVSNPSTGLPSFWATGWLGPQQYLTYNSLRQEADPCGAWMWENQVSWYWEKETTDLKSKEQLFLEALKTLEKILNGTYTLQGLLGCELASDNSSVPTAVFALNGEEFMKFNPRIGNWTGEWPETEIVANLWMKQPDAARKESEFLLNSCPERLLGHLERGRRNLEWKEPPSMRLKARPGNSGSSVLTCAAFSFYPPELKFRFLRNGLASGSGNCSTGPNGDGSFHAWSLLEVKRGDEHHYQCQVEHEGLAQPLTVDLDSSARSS
T4 chain 2: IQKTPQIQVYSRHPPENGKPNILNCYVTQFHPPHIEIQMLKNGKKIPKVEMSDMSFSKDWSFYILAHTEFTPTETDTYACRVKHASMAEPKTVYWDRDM

[18] = molecular target: human FcRn (with beta2-microglobulin) (human); assay: SPR, pH 7.0
[19] = molecular target: human FcRn (with beta2-microglobulin) (human); assay: SPR, pH 7.0; remark: listed apart in the source
[20] = molecular target: human FcRn (with beta2-microglobulin) (human); assay: SPR, neutral pH
[21] = molecular target: human FcRn (with beta2-microglobulin) (human); assay: SPR, pH 7.0; remark: listed apart in the source
[22] = molecular target: human FcRn (with beta2-microglobulin) (human); assay: SPR, pH 7.0; remark: listed apart in the source

Sequence of human FcgRIIIa(V) (human) (chain, as listed by the source): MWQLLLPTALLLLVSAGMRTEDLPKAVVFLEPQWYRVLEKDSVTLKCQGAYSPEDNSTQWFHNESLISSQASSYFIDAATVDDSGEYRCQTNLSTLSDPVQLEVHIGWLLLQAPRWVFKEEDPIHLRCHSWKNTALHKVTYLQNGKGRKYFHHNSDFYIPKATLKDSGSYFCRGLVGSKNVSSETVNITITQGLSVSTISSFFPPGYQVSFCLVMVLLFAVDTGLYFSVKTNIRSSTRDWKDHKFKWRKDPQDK

- Kd (human FcgRIIa(R) [3]): 15000 nM
- Kd (human FcgRIIb [5]): 1200 nM
- Kd (human FcgRIa [8]): 11 nM
- Kd (human FcgRIIb [9]): 1200 nM
- Kd (human FcgRIIa(R) [16]): 15000 nM
- Kd (human FcgRIa [17]): 11 nM
B2: IL6R-BF648 (antibody)
chain 1: not shown
chain 2: DIQMTQSPSSLSASVGDRVTITCRASQDISSYLNWYQQKPGKAPKLLIYYTSRLHSGVPSRFSGSGSGTDFTFTISSLQPEDIATYYCQQGNTLPYTFGQGTKVEIK

- Kd (mouse FcRn): 3.2 nM
B5: mF40 (antibody)
chain 1: DVQLQESGPVLVKPSQSLSLTCTVTGYSITSDHAWSWIRQFPGNKLEWMGYISYSGITTYNPSLKSRISITRDTSKNQFFLQLNSVTTGDTSTYYCARSLARTTAMDYWGQGTSVTVSSAKTTPPSVYPLAPGSAAQTNSMVTLGCLVKGYFPEPVTVTWNSGSLSSGVHTFPAVLQSDLYTLSSSVTVPSSTWPSETVTCNVAHPASSTKVDKKIVPRDCGCKPCICTVKEVSKVFIFPPKPKDVLYITLEPKVTCVVVDISKDDPEVQFSWFVDDVEVHTAQTQPREEQFNSTFRSVSELPIMHQDWLNGKEFKCRVNSAAFPAPIEKTISKTKGRPKAPQVYTIPPPKEQMAKDKVSLTCMITDFFPEDITVEWQWNGQPAENYKNTQPIMDTDGSYFVYSKLNVQKSNWEAGNTFTCSVLHEGLHWHHTEKSLSHSPGK
chain 2: not shown

- Kd (mouse FcRn): 4 nM
B6: mF38 (antibody)
chain 1: B5 chain 1 with K231P, K235S
chain 2: not shown

- Kd (mouse FcRn): 21 nM
B7: mF39 (antibody)
chain 1: B5 chain 1 with H429K, W430N
chain 2: not shown

- Kd [20]: 30 nM
- Kd [18]: 30 nM
- Kd [19]: 30 nM
B11: IgG1-F21 (antibody)
chain 1: QVQLQESGPGLVKPSETLSLTCAVSGHSISHDHAWSWVRQPPGEGLEWIGFISYSGITNYNPSLQGRVTISRDNSKNTLYLQMNSLRAEDTAVYYCARSLARTTAMDYWGEGTLVTVSSASTKGPSVFPLAPSSKSTSGGTAALGCLVKDYFPEPVTVSWNSGALTSGVHTFPAVLQSSGLYSLSSVVTVPSSSLGTQTYICNVNHKPSNTKVDKKVEPKSCDKTHTCPPCPAPELLGGPSVFLFPPKPKDTLYISRTPEVTCVVVDVSHEDPEVKFNWYVDGVEVHNAKTKPREEQYNSTYRVVSVLTPLHQDWLNGKEYKCKVSNKALPAPIEKTISKAKGQPREPQVYTLPPSRDELTKNQVSLTCLVKGFYPSDIAVEWESNGQPENNYKTTPPVLDSDGSFFLYSKLTVDKSRWQQGNVFSCSVMHEALHYHYTQKSLSLSP
chain 2: not shown

- Kd [22]: 35 nM
B12: IgG1-F763 (antibody)
chain 1: B11 chain 1 with L237R, S241K, N288E, T309Q, P310V, Q313A
chain 2: not shown

Second part, the binder before the results:

B1: IL6R-G1d/IL6R-L (IgG1) (antibody)
chain 1: not shown
chain 2: B2 chain 2
- Kd (human FcgRIIIa(V) [1]): 350 nM
- Kd (human FcgRIIIa(V) [2]): 350 nM
- Kd (human FcgRIIa(R) [3]): 1000 nM
- Kd (human FcgRIIa(H) [4]): 670 nM
- Kd (human FcgRIIb [5]): 2600 nM
- Kd (human FcgRIIa(R) [6]): 1000 nM
- Kd (human FcgRIIIa(V) [7]): 350 nM
- Kd (human FcgRIa [8]): 0.32 nM
- Kd (human FcgRIIb [9]): 2600 nM
- Kd (human FcgRIa [10]): 0.32 nM
- Kd (human FcgRIIb [11]): 5300 nM
- Kd (human FcgRIIa(H) [12]): 670 nM
- Kd (human FcgRIIa(H) [13]): 670 nM
- Kd (human FcgRIIb [14]): 5300 nM
- Kd (human FcgRIIb [15]): 2600 nM
- Kd (human FcgRIIa(R) [16]): 1000 nM
- Kd (human FcgRIa [17]): 0.32 nM

B3: IL6R-B3/IL6R-L (antibody)
chain 1: not shown
chain 2: B2 chain 2
- Kd (human FcgRIIIa(V) [1]): 330 nM
- Kd (human FcgRIIIa(V) [2]): 330 nM
- Kd (human FcgRIIa(R) [3]): 1100 nM
- Kd (human FcgRIIa(H) [4]): 770 nM
- Kd (human FcgRIIb [5]): 3100 nM
- Kd (human FcgRIa [8]): 0.42 nM
- Kd (human FcgRIIb [9]): 3100 nM
- Kd (human FcgRIIa(H) [13]): 770 nM
- Kd (human FcgRIIa(R) [16]): 1100 nM
- Kd (human FcgRIa [17]): 0.42 nM

B4: IL6R-F11/IL6R-L (antibody)
chain 1: not shown
chain 2: B2 chain 2
- Kd (human FcgRIIa(R) [6]): 5000 nM
- Kd (human FcgRIa [10]): 0.9 nM
- Kd (human FcgRIIa(H) [12]): 5000 nM
- Kd (human FcgRIIb [15]): 6800 nM

B8: IgG1-F140 (antibody)
chain 1: B11 chain 1 with S241K
chain 2: not shown
- Kd [18]: 36 nM
- Kd [19]: 36 nM

B9: F38 (antibody)
chain 1: B11 chain 1 with S256T, P310V, Y436W
chain 2: not shown
- Kd [20]: 100 nM

B10: IgG1-F699 (antibody)
chain 1: B11 chain 1 with S241K, N288E, T309Q, P310V, Q313A
chain 2: not shown
- Kd [21]: 23 nM

B13: IgG1-F698 (antibody)
chain 1: B11 chain 1 with N288E, T309Q, P310V, Q313A
chain 2: not shown
- Kd [22]: 22 nM
- Kd [21]: 22 nM
